# Measurements as given in patent publication US20250018038A1 (UNIVERSITY OF CHICAGO, published 2025).
# Numbering of substitutions follows the chain as printed.
# B1: SUR-N-37 (Fab, V domains shown)
# VH: EVQLVESGGGLVQPGGSLRLSCAASGFNVSYSSIHWVRQAPGKGLEWVASISSYYGSTSYADSVKGRFTISADTSKNTAYLQMNSLRAEDTAVYYCARSTYYSWYPYYYAMWHQHGMDYWGQGTLVTVSS
# VL: DIQMTQSPSSLSASVGDRVTITCRASQSVSSAVAWYQQKPGKAPKLLIYSASSLYSGVPSRFSGSRSGTDFTLTISSLQPEDFATYYCQQSPMYSLITFGQGTKVEIKR
# notes: also called SUR-N-37 Fab
# B2: SUR-N-45 Fab (Fab, V domains shown)
# VH: EVQLVESGGGLVQPGGSLRLSCAASGFNLSSSSIHWVRQAPGKGLEWVASISSYSGYTYYADSVKGRFTISADTSKNTAYLQMNSLRAEDTAVYYCARPHWNSSYFSGWAMDYWGQGTLVTVSS
# VL: B1 VL with S91W, P92S, M93S, Y94K, L96P
# Tests used:
# Bor-N = biological target: T1, Bor-N (Biotinylated Avi tag, held on neutravidin; not in the letters); experiment: single point protein ELISA, 50 nM immobilised target
# T1 construct: also called Bor N: 20-88; Borealin N-terminal domain; not shown: Avi tag, and any purification tag or linker
# T1 chain: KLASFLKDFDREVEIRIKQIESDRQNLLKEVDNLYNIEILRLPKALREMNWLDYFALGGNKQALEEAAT
# Procedure: (§1) To rapidly reconfirm the binding and specificity of the obtained Fabs after reformatting into the expression vectors single-point Fab ELISA was performed (FIG. 2-3). Briefly, 50 nM Avi-tagged targets were immobilized on the prepared NAV-coated and blocked with 0.5% BSA in PBS 96-well ELISA plates. The target coated plates were washed with appropriate buffer (TBST or PBST) and were incubated with 200 nM Fab for 20 minutes and then washed. The washed plates were incubated with protein L conjugated with HRP (1:5000 diluted in TBST) for 30 minutes. Plates were washed and the reaction was developed using the TMB chromogenic substrate (Thermofisher) and subsequently quenched with 1M HCl. Absorbance was read at 450 nm on Epoch plate reader.
# [1] = biological target: T2, Survivin (purified recombinant Survivin protein) (human, UniProt O15392 1-140, limits assumed, biotinylated on the Avi-tag by BirA (antigens for selection and ELISA)); experiment: multipoint protein ELISA: 50 nM immobilised target, 3-fold serial dilutions of purified Fab, protein L-HRP, sigmoidal fit
# T2 construct: also called Baculoviral IAP repeat-containing protein 5; BIRC5
# T2 sequence (O15392 1-140 limits assumed): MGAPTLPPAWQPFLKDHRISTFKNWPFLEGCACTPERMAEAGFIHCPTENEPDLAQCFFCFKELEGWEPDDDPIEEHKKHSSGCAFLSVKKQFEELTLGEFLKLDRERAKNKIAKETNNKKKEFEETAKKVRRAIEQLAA
# Procedure: Protein based multipoint ELISA was performed to estimate the affinity of the generated unique Fabs to their cognate antigens. A fixed concentration of the immobilized target (50 nM) on ELISA plate was incubated with 3-fold serial dilutions of the purified Fabs starting from […] for 15 min. The plates were washed and the bound antigen-Fab complexes were incubated with H1RP-conjugated protein L (1:5000 dilution in PBST). As with phage ELISA, the plates were again washed, developed with TMB substrate and quenched with 1.0 M HCl, and absorbance (A450) was determined. To determine the affinity, the data were fitted in a non-linear sigmoidal function with variable slope in GraphPad PRISM and EC50 value was calculated (FIG. 2).
# Bor-C = biological target: T3, Bor-C (Biotinylated Avi tag, held on neutravidin; not in the letters); experiment: single point protein ELISA, 50 nM immobilised target
# T3 construct: also called Bor C: 207-280; Borealin C-terminal domain; not shown: Avi tag, and any purification tag or linker
# T3 chain: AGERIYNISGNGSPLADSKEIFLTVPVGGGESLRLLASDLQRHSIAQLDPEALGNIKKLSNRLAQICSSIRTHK
# Procedure: as §1
# [2] = biological target: T4, cell surface survivin on cancer cells (human, UniProt O15392 1-142); experiment: flow cytometry of live cells, 200 nM Fab, anti-human F(ab')2-A647 secondary
# T4 construct: whole, on cells
# T4 sequence (O15392 whole entry): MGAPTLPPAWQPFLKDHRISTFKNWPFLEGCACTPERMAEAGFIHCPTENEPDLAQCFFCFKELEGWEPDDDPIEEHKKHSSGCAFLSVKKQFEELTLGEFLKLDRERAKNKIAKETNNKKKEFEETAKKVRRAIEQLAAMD
# Procedure: Human or murine tumor cells were trypsinized, washed and resuspended in Flow buffer (1×PBS supplemented with 2% FBS) and added to a 96-well plate (#3799, Costar). 200 nM primary CPC Fab was mixed with 0.5M cells and incubated at 37 C for 20 min. […] Samples were analyzed by flow cytometry using CytoFLEX (Beckman Coulter) and mean fluorescence intensity (MFI) data was extracted using the FlowJo software (FIG. 5A-E, FIG. 6). Human peripheral blood mononuclear cells (PBMCs) derived from a single patient were used as a source of healthy human cells. PBMCs were counted, split and spun down 400×g 5 min. Cells were resuspended in Flow buffer (1×PBS supplemented with 2% FBS) and pre-incubated with TruStain FcX (1:20, Biolegend 422302) for 10 min at 37 C, followed by 200 nM primary Fab incubation at 37 for 20 min. […] Mean fluorescence intensity (MFI) data was extracted using the FlowJo software (FIG. 5F).
Binder,binding result (Bor-N),EC50 [1] [nM],binding result (Bor-C),binding result [2]
B1,no binding (tested: 200 nM),1,,
B2,no binding (tested: 200 nM),,no binding (tested: 200 nM),binds
